{"source": "patent US12281340B2", "about": "“Method of producing N-acyl-amino group-containing compound” (AJINOMOTO CO., INC., priority 2018, dated 2025)", "molecules": {"B1": {"name": "CfHP: hypothetical protein from Cystobacter fuscus (GH3 protein), His-tagged (protein, listed as Cystobacter fuscus)", "chain": "MQAAGRRDKQRFIEQTRHVARVNVDTLRAILQHNRDTDFGRRHGFASLRTVEDFQRALPVSTYEPFRPYMERIARGEQNVLTADRVEYLGITSGTTGQRKLLPVSRPHLENMRRTMMIGRAVVTEKVPAARRPSRGMILMNAVLRERSEGGLLTGALTAISTHSMGRAASFAFTSPPEAFRLRKHADALYLHLLFGLRERELGTLMAPFASGLLDMVHLLERRGADLVDDIARGVLRPELDLEPEQRRLLQSRLLPDPERAREVSQALEQGPHGLLRRLWPRLAYVSSITGASFSLYTRQLTPYLEGVPLSAASYVSTEGILGVPLELEQAVYCLMVGMAFFEFIPERELDAESPTTLLPEQLVEGEAYEVVLTTQAGLYRYRLGDVVRIVGRYHEAPLMEFLYRRGALLNLMGEKTSEHAARLALEQALATEGLLPADYSVVEETETLPGRYALFVELQEGARPQGAPEQLSRALEEALCRTNPFYEVIRRSERLGAAQLHRVEPGTFQALRDVLVQRGASPTQVKVPRVVRDAELQGLLRQRRVTG", "modifications": "His-tag", "notes": "hypothetical protein from Cystobacter fuscus (GH3 protein), His-tagged"}}, "experiment": "Synthesis of N-capryloylamino acid using washed microbial cell suspension or microbial cell suspension expressing acylamino acid synthetase", "type": "cell-based, E coli BL21(DE3)", "conditions": "UV 210 nm", "method": "BL21(DE3)/pET-28a-AtGH3-6, BL21(DE3)/pET-28a-OsGH3-8, BL21(DE3)/pET-28a-AtGH3-5, and BL21(DE3)/pET-28a were inoculated to 100 mL of LB medium containing 25 mg/L of kanamycin in a Sakaguchi flask, respectively and cultured with shaking at 37° C. When OD610 reached 0.6, 1 mM IPTG was added, and culturing with shaking was continued at 15° C. for 24 hours.\nBL21(DE3)/pET-28a-CfHP was inoculated to 100 mL of LB medium containing 25 mg/L of kanamycin in a Sakaguchi flask, and cultured with shaking at 37° C. When OD610 reached 0.2, 1 mM IPTG was added, and culturing with shaking was continued at 15° C. for 24 hours.\nAfter completion of the culture, microbial cells were collected from 5 mL of the resulting culture medium by centrifugation and washed with 20 mM Tris-HCl (pH 7.6) followed by being suspended in 1 mL of 20 mM Tris-HCl (pH 7.6) to use as a washed microbial cell suspension.\nAfter completion of the culture, 15 mL of the resulting culture medium was concentrated to 3 mL by centrifugation to use as a microbial cell suspension.\n0.3 mL of a reaction solution containing 33.3 mM Tris-HCl, 3.3 mM amino acid, 3.3 mM sodium caprylate, 6.7 mM or 0 mM ATP, 6.7 mM MgCl2, 0.7 mM DTT, 30 μg of the microbial cell suspension (cell free extract solution, washed microbial suspension, microbial suspension), pH 8.0 was incubated at 25° C. for 24 hours. As the amino acid, L-Asp was used in AtGH3-6, OsGH3-8, AtGH3-5, and Gly or L-Ala was used in CfHP. After completion of the reaction, 0.8 mL of the reaction stop solution (1% (v/v) phosphoric acid, 75% (v/v) methanol) was added, and the mixture was filtrated through the filter followed by being subjected to the UPLC-MS analysis to detect a signal of a molecular weight corresponding to the N-capryloylamino acid. The condition for the UPLC-MS analysis is as described in Example 2. As a result of the UPLC-MS analysis, the signal of the molecular weight corresponding to the appropriate N-capryloylamino acid was confirmed in the reaction solution using the microbial cell suspension and the like shown in Table 8 below.\nAs a result of quantifying the produced N-acylamino acid by detection at UV 210 nm, when Gly was used as the substrate in CfHP, 2.8 mM, 2.2 mM and 2.6 mM N-capryloylamino acids were detected in the washed microbial cell suspension, the microbial cell suspension (in the presence of ATP) and the microbial cell suspension (in the absence of ATP), respectively. When L-Ala was used as the substrate in CfHP, 2.4 mM, 0.9 mM and 1.0 mM N-capryloylamino acids were detected in the washed microbial cell suspension, the microbial cell suspension (in the presence of ATP) and the microbial cell suspension (in the absence of ATP), respectively.", "data": [{"molecule": "B1", "values": [{"measurement": "N-capryloylamino acid detected", "setting": "Gly as substrate, microbial cell suspension (in the absence of ATP)", "value": 2.6, "unit": "mM"}, {"measurement": "N-capryloylamino acid detected", "setting": "Gly as substrate, microbial cell suspension (in the presence of ATP)", "value": 2.2, "unit": "mM"}, {"measurement": "N-capryloylamino acid detected", "setting": "Gly as substrate, washed microbial cell suspension", "value": 2.8, "unit": "mM"}, {"measurement": "N-capryloylamino acid detected", "setting": "L-Ala as substrate, microbial cell suspension (in the absence of ATP)", "value": 1.0, "unit": "mM"}, {"measurement": "N-capryloylamino acid detected", "setting": "L-Ala as substrate, microbial cell suspension (in the presence of ATP)", "value": 0.9, "unit": "mM"}, {"measurement": "N-capryloylamino acid detected", "setting": "L-Ala as substrate, washed microbial cell suspension", "value": 2.4, "unit": "mM"}]}]}
